For two substances, % max bind, EC50 and fold better EC50 than monomeric mRAPc peptide results are on record in US20100210517A1.

One test deals with LRP2 CR89 Y1042W (human) (UniProt P98164). Put plainly: solid-phase assay; OD at the highest ligand concentration as percent of the highest OD of all ligands.
The target in test [1] is recombinant human LRP1 ligand binding cluster II (amino acids 786-1165, C-terminal Fc) (human). Put plainly: inhibitor pre-incubated with coated LRP1 cluster II-Fc, washed, then RAP d3 added; inhibition of RAP d3 binding.
Test [2] has the same target. The experiment in a line: competition ELISA, inhibition of RAP d3 (2 nM) binding to coated LRP1 cluster II-Fc. For orientation: In an ELISA, binding on a coated surface is turned into a signal by an enzyme label.

mature human RAP (full-length), sequence (P30533 35-357): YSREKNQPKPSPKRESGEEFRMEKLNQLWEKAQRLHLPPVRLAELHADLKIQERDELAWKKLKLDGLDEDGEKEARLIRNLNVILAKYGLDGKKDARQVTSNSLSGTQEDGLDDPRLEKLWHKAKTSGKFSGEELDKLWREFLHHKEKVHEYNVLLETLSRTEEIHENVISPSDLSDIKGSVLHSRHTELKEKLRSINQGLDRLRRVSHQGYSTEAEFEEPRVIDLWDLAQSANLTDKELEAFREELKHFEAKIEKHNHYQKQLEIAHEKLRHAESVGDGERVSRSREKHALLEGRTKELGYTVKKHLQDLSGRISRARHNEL
recombinant human LRP1 ligand binding cluster II (amino acids 786-1165, C-terminal Fc) (human), sequence (Q07954 786-1165): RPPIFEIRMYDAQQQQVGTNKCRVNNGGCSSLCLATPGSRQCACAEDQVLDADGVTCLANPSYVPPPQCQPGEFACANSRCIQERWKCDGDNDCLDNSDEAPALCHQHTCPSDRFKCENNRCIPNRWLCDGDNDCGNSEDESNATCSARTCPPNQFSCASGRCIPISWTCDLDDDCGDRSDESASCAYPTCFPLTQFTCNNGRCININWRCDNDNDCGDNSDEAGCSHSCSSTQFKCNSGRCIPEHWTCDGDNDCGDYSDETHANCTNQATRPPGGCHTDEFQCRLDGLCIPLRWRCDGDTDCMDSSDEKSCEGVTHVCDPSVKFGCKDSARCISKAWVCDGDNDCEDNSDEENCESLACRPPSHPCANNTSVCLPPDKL
LRP2 CR89 Y1042W (human), sequence (P98164 1025-1102 Y1043W limits assumed): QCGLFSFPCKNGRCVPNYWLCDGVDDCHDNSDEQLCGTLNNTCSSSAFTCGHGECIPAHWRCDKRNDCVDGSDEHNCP
RAP d3 (wild-type domain 3 of human RAP, amino acids 201-319 of mature RAP), sequence (P30533 235-353 A264E): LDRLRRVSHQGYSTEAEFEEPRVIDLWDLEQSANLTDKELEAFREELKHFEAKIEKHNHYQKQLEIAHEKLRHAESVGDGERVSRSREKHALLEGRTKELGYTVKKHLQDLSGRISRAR

Consider “RAP d3 (wild-type domain 3 of human RAP, amino acids 201-319 of mature RAP) (from UniProt P30533 235-353) (ligand)”, for which the % max bind in the test with LRP2 CR89 Y1042W (human) turned out to be 9%.

Regarding “mature human RAP (full-length) (from UniProt P30533 35-357) (ligand)”, the EC50 (in general, the concentration giving half of the maximal effect) in test [1] was determined as 0.3 nM. Also, in test [2], the EC50 came out at 0.5 nM and the fold better EC50 than monomeric mRAPc peptide was 64 fold.
